The supplement of paper PMC10724198
± gives the standard deviation of the averaged measurements.

Test system: Saccharomyces cerevisiae
Assay: protein stability index of tFT-peptide fusion (C-terminal peptide) (PSI (0-1 scale)); higher = more stable (slower turnover)
Conditions: temperature: 30 C
Experimental: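 MPS profiling in S. cerevisiae of the yeast C-terminome library: the last 12 aa of each annotated ORF are fused to the C-terminus of a sfGFP-mCherry timer, after a GGGS linker. Cells are FACS-sorted into 8 mCherry/sfGFP bins and deep-sequenced. PSI runs from 0 (unstable) to 1 (stable); wild type and das1Δ backgrounds, two technical replicates each.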

[1] = genetic background: das1 deletion

Sequence | protein stability index [1] | protein stability index (genetic background: wild type)
FAKLAAIPCSNA [YMR265C C-terminal 12 aa] | 0.553 ± 0.0059 | 0.5659 ± 0.0046
EDHRDISGKDVN [UBP1 C-terminal 12 aa] | 0.68575 ± 0.0005 | 0.687 ± 0.033
DNNDLAKSSSQK [CMI7 C-terminal 12 aa] | 0.7059 ± 0.0068 | 0.66 ± 0.048
YTINYETNTVEY [NUP133 C-terminal 12 aa] | 0.641 ± 0.024 | 0.6455 ± 0.0026
EEEKRHGINLKC [GUP2 C-terminal 12 aa] | 0.6905 ± 0.004 | 0.687 ± 0.045
KNEQDEDKWDDF [GCS1 C-terminal 12 aa] | 0.729 ± 0.031 | 0.672 ± 0.014
INKTLAWMDEGL [ERG26 C-terminal 12 aa] | 0.694 ± 0.013 | 0.728 ± 0.055
ELLRIHNSHLRN [FOL3 C-terminal 12 aa] | 0.715 ± 0.031 | 0.709 ± 0.042
FKITTEHGTTQQ [CRT10 C-terminal 12 aa] | 0.675 ± 0.0095 | 0.685 ± 0.031
SSKKTIQEEIYI [DPB2 C-terminal 12 aa] | 0.698 ± 0.015 | 0.741 ± 0.056
VRILTKYPKILV [RIM101 C-terminal 12 aa] | 0.488 ± 0.021 | 0.5 ± 0.0066
GGKIFSLKLTLI [YPR108W-A C-terminal 12 aa] | 0.673 ± 0.011 | 0.384 ± 0.023
AATAKGKGKKKK [RSM27 C-terminal 12 aa] | 0.6993 ± 0.005 | 0.64475 ± 0.00021
GLVATAVKQLPQ [VPS64 C-terminal 12 aa] | 0.674 ± 0.0032 | 0.662 ± 0.014
LARGGVASFTVK [RNH70 C-terminal 12 aa] | 0.703 ± 0.0078 | 0.652 ± 0.0088
DMLYDELMKTME [KSS1 C-terminal 12 aa] | 0.7032 ± 0.00096 | 0.666 ± 0.022
FEHFHCVLDQIL [YDR203W C-terminal 12 aa] | 0.7056 ± 0.0043 | 0.6954 ± 0.0031
IYVCGRLTNDRK [YIL171W-A C-terminal 12 aa] | 0.6871 ± 0.0066 | 0.65 ± 0.015
RELFGVGTPQKL [TEA1 C-terminal 12 aa] | 0.7173 ± 0.0037 | 0.728 ± 0.023
ITLAELDVGDSE [CAF130 C-terminal 12 aa] | 0.703 ± 0.03 | 0.7119 ± 0.0027
PTYDNNRHYGND [YFL032W C-terminal 12 aa] | 0.671 ± 0.0083 | 0.702 ± 0.018

Sequence | protein stability index [1] | protein stability index (genetic background: wild type)
PPNTLWHYNFRK [MRPL28 C-terminal 12 aa] | 0.751 ± 0.024 | 0.69 ± 0.018
EIKCCHNGRALK [SAT4 C-terminal 12 aa] | 0.668 ± 0.023 | 0.697 ± 0.06
EIKQRNLRMQRQ [MPO1 C-terminal 12 aa] | 0.683 ± 0.026 | 0.678 ± 0.01
NIGDFSPDLMDS [MSS11 C-terminal 12 aa] | 0.684 ± 0.011 | 0.713 ± 0.0096
LGSNCVFLAIFR [YPL222C-A C-terminal 12 aa] | 0.674 ± 0.032 | 0.648 ± 0.02
GGNSSKKGKKKR [RQC2 C-terminal 12 aa] | 0.6835 ± 0.00078 | 0.724 ± 0.022
YSDGRNYKESSI [CSS3 C-terminal 12 aa] | 0.69 ± 0.037 | 0.656 ± 0.045
VMGQFLPIFEMD [GSM1 C-terminal 12 aa] | 0.724 ± 0.031 | 0.713 ± 0.0046
IKLLKTHNRMSL [YNL277W-A C-terminal 12 aa] | 0.6846 ± 0.0031 | 0.696 ± 0.036
KIEVSSQESWGN [HSP26 C-terminal 12 aa] | 0.68 ± 0.0024 | 0.693 ± 0.037
DLQSLIESNGFA [PFK27 C-terminal 12 aa] | 0.689 ± 0.021 | 0.689 ± 0.026
RKSTRSDNPHEA [CBF1 C-terminal 12 aa] | 0.6989 ± 0.0016 | 0.687 ± 0.017
SVHPLIISYSQL [TRM732 C-terminal 12 aa] | 0.716 ± 0.05 | 0.637 ± 0.024
RELTDLFGYKLG [SLM4 C-terminal 12 aa] | 0.708 ± 0.015 | 0.677 ± 0.02
NKVEAFKSLYTF [NUP60 C-terminal 12 aa] | 0.705 ± 0.028 | 0.591 ± 0.013
LLFGDEVVACKD [YDL172C C-terminal 12 aa] | 0.722 ± 0.017 | 0.691 ± 0.011
SVVSQPPPGYEQ [HSE1 C-terminal 12 aa] | 0.7102 ± 0.0066 | 0.667 ± 0.02
FGIKKNDLKKSN [GSF2 C-terminal 12 aa] | 0.708 ± 0.014 | 0.705 ± 0.023
AFSSNDLLTVHL [BRE1 C-terminal 12 aa] | 0.698 ± 0.036 | 0.673 ± 0.011
ISKKYYSRYDKK [OM14 C-terminal 12 aa] | 0.683 ± 0.037 | 0.616 ± 0.025
